Measurements reported in patent US20250051474A1, “ANTI-CD97 ANTIBODIES AND ANTIBODY-DRUG CONJUGATES” (New York University, priority 2023, published 2025).

Assays:
Assay in all cases: cell-based binding assay: CD97 GAIN mutant transiently expressed on ExpiCHO cells, A8 Fab titrated, flow cytometry MFI, 1:1 fit; upper panel
K519A = target: T1, K519A (human, UniProt P48960)
T1 construct: transiently expressed on the surface of ExpiCHO cells, gated by anti-V5 tag staining; also called CD97 GAIN mutant K519A expressed on ExpiCHO cells
T1 sequence (receptor, looked up): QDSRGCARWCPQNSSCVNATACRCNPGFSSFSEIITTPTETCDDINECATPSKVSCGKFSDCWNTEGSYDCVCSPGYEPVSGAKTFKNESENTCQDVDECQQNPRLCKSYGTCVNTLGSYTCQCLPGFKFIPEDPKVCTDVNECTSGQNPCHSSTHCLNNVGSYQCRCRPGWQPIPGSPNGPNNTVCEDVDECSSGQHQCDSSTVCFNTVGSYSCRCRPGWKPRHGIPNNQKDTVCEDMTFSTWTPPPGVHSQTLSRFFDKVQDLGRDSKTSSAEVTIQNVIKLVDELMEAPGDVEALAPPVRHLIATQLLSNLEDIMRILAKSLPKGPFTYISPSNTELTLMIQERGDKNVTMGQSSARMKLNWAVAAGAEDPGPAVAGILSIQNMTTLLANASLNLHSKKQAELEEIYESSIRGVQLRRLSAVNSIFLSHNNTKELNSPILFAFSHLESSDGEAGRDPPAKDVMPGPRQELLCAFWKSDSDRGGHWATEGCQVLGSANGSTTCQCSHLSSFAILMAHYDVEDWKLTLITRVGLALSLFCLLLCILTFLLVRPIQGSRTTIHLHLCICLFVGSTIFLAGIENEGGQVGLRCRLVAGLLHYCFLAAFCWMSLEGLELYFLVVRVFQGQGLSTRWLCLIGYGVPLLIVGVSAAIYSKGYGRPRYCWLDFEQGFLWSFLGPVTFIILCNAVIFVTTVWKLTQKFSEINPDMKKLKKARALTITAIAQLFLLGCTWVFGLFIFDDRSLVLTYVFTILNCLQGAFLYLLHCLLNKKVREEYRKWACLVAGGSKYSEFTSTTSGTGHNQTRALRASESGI
Protocol: (§1) KD values were determined from the curve fitting of a 1:1 binding model.

R380A = target: T2, R380A (human, UniProt P48960)
T2 construct: transiently expressed on the surface of ExpiCHO cells, gated by anti-V5 tag staining; also called CD97 GAIN mutant R380A expressed on ExpiCHO cells
T2 sequence (receptor, looked up): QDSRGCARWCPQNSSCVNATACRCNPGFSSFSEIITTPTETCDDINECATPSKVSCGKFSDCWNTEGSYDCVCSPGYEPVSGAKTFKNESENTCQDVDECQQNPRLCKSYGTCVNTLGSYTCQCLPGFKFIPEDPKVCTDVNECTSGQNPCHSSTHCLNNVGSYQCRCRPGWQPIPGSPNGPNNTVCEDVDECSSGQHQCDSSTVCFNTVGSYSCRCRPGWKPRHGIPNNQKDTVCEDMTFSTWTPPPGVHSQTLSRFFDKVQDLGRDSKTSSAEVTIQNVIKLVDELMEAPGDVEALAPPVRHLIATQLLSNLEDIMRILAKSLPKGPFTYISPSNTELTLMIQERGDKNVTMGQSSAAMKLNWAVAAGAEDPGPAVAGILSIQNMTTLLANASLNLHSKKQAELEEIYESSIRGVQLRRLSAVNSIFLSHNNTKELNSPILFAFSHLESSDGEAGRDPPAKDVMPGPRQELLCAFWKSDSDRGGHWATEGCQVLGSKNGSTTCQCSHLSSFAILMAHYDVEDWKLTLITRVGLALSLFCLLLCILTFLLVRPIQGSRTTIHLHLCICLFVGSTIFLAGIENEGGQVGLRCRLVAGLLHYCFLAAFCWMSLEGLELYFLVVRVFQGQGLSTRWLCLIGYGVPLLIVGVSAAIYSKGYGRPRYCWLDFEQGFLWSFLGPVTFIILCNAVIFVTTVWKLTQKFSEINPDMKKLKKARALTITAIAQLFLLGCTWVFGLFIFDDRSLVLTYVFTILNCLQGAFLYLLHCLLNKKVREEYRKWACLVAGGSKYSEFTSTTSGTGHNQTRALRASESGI
Protocol: as §1

Q365A = target: T3, Q365A (human, UniProt P48960)
T3 construct: transiently expressed on the surface of ExpiCHO cells, gated by anti-V5 tag staining; also called CD97 GAIN mutant Q365A expressed on ExpiCHO cells
T3 sequence (receptor, looked up): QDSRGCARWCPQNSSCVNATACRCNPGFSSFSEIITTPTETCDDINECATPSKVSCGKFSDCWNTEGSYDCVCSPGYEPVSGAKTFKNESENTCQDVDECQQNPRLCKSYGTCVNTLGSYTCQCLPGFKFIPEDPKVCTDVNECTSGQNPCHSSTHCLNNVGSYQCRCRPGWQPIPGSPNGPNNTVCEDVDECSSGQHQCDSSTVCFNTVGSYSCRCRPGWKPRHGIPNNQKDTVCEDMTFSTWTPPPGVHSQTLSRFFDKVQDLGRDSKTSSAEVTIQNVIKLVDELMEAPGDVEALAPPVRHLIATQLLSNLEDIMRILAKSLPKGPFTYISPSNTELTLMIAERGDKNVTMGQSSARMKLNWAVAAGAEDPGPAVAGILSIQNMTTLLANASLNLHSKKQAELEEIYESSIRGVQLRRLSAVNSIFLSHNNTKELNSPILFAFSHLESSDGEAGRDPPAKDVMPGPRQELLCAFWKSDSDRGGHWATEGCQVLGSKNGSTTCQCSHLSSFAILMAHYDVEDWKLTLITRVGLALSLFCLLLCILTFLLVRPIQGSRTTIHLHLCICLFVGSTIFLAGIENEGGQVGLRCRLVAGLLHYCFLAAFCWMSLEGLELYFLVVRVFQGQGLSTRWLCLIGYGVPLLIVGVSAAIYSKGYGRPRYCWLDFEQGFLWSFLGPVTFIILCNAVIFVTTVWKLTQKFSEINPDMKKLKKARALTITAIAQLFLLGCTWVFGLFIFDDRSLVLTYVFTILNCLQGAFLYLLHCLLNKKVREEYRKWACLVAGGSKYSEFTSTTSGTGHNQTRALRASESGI
Protocol: as §1

Kd (K519A): 110 nM
Kd (R380A): 160 nM
Kd (Q365A): 56 nM
B1: Antibody clone A8, Fab format (Fab, V domains shown)
VH: EVQLVESGGGLVQPGGSLRLSCAASGFTISSYSIHWVRQAPGKGLEWVASISPYYGSTSYADSVKGRFTISADTSKNTAYLQMNSLRAEDTAVYYCARSWYYYEQNPYWYQKEEQALDYWGQGTLVTVSS
VL: DIQMTQSPSSLSASVGDRVTITCRASQSVSSAVAWYQQKPGKAPKLLIYSASSLYSGVPSRFSGSRSGTDFTLTISSLQPEDFATYYCQQSVYSPVTFGQGTKVEIKR
notes: Fab; also called wild type A8
